Measured values published in patent US20250262210A1 (TRUSTEES OF COLUMBIA UNIVERSITY IN THE CITY OF NEW YORK, published 2025).

Molecular target: T1, NCAPD3 (human, UniProt P42695 1-1498)
T1 sequence (looked up): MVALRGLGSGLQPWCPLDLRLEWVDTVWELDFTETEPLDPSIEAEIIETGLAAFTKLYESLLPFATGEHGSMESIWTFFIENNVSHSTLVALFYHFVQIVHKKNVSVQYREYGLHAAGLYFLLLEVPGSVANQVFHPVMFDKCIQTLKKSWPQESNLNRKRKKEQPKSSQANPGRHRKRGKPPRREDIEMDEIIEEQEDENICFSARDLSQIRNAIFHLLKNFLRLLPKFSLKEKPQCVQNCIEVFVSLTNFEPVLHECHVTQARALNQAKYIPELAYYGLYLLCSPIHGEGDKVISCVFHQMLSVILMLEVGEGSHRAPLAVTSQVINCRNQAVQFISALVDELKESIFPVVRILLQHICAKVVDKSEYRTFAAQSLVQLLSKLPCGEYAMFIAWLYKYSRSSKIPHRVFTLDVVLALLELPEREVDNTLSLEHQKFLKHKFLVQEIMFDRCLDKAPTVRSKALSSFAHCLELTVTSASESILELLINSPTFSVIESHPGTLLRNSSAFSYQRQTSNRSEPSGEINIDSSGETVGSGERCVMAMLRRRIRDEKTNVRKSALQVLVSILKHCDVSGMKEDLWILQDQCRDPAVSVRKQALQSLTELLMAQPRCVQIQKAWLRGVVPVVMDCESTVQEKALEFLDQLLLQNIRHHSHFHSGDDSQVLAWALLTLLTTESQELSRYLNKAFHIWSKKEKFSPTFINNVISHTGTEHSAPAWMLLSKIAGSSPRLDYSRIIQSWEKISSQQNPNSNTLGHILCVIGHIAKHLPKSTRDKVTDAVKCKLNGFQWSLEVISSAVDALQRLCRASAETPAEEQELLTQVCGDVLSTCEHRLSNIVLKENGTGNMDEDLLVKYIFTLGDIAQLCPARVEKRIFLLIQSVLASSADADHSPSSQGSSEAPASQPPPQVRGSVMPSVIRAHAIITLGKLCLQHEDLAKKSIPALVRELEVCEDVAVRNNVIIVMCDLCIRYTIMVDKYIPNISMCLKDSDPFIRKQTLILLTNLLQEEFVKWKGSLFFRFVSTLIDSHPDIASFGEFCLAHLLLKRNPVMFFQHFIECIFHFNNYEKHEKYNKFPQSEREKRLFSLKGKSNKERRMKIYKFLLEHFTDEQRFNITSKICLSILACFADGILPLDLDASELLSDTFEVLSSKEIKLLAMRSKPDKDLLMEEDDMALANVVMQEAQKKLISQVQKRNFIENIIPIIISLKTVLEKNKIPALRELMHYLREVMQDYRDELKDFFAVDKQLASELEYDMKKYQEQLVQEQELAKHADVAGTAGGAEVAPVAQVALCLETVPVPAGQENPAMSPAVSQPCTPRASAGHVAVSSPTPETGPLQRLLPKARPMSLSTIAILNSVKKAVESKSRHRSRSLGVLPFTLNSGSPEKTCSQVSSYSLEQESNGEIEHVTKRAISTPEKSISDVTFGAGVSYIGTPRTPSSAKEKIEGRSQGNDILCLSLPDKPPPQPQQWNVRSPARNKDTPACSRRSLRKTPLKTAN
Test: IP/MS, LZTR1 R810W-FLAG, U87
How it was run: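 Read-out: spectral counts from LC-MS/MS (Orbitrap Fusion) after MaxQuant identification. Variable modifications were Met oxidation, protein N-terminal acetylation and N/Q deamidation.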

B1: LZTR1 R810W-FLAG (other, human, UniProt Q8N653 1-840, looked up)
chain: MAGPGSTGGQIGAAALAGGARSKVAPSVDFDHSCSDSVEYLTLNFGPFETVHRWRRLPPCDEFVGARRSKHTVVAYKDAIYVFGGDNGKTMLNDLLRFDVKDCSWCRAFTTGTPPAPRYHHSAVVYGSSMFVFGGYTGDIYSNSNLKNKNDLFEYKFATGQWTEWKIEGRLPVARSAHGATVYSDKLWIFAGYDGNARLNDMWTIGLQDRELTCWEEVAQSGEIPPSCCNFPVAVCRDKMFVFSGQSGAKITNNLFQFEFKDKTWTRIPTEHLLRGSPPPPQRRYGHTMVAFDRHLYVFGGAADNTLPNELHCYDVDFQTWEVVQPSSDSEVGGAEVPERACASEEVPTLTYEERVGFKKSRDVFGLDFGTTSAKQPTQPASELPSGRLFHAAAVISDAMYIFGGTVDNNIRSGEMYRFQFSCYPKCTLHEDYGRLWESRQFCDVEFVLGEKEECVQGHVAIVTARSRWLRRKITQARERLAQKLEQEAAPVPREAPGVAAGGARPPLLHVAIREAEARPFEVLMQFLYTDKIKYPRKGHVEDVLLIMDVYKLALSFQLCRLEQLCRQYIEASVDLQNVLVVCESAARLQLSQLKEHCLNFVVKESHFNQVIMMKEFERLSSPLIVEIVRRKQQPPPRTPLDQPVDIGTSLIQDMKAYLEGAGAEFCDITLLLDGHPRPAHKAILAARSSYFEAMFRSFMPEDGQVNISIGEMVPSRQAFESMLRYIYYGEVNMPPEDSLYLFAAPYYYGFYNNRLQAYCKQNLEMNVTVQNVLQILEAADKTQALDMKRHCLHIIVHQFTKVSKLPTLWSLSQQLLLDIIDSLASHISDKQCAELGADI
notes: Stably expressed in U87 cells by lentivirus; also called LZTR1-FLAG-R810W; LZTR1 RW; not shown: FLAG tag
**Q.** Does B1 bind?
**A.** binds
